Measurements as given in US20110223127A1 (NOXXON PHARMA, published 2011).

Molecular target: T1, human [^125J]-SDF-1α (human, UniProt P48061 22-89, 125J (iodine-125) label, position not stated)
T1 construct: Bought from PerkinElmer; also called radiolabelled human SDF-1; CXCL12
Test: radioligand binding of human [125J]-SDF-1 to CHO cells expressing human CXCR4, scintillation counting (total binding, cpm); the blocker varied is the nucleic acid Spiegelmer 192-A10-001, preincubated with the ligand
Procedure: For binding assays CXCR4-expressing cells were seeded into polylysine-coated 24-well plates at a cell density of 1×10⁵ cells/well and cultivated overnight at 37° C. and 5% CO₂ in CHO-Ultra medium (Cambrex, Verviers, Belgium) containing 50 units/ml penicillin, 50 μg/ml streptomycin and 0.5 mg/ml geneticin.
For the binding experiment, the medium was removed and the cells were washed once with Hanks balanced salt solution, additionally containing 20 mM HEPES, 1 mg/ml bovine serum albumin, 0.1 mg/ml bacitracin (HBB). Then the cells were incubated in 0.2 ml HBB for 1 h at room temperature together with […] [¹²⁵J]-SDF-1 (PerkinElmer, Rodgau, Germany) and varying concentrations of Spiegelmer.
Non-specific binding was determined by adding unlabeled human SDF-1 (R & D Systems, Wiesbaden, Germany) to a final concentration of 0.5 μM to several wells.

T1 sequence (P48061 22-89): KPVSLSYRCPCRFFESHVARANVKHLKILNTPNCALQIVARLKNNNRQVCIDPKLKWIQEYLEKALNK

binding result: binds
B1: human CXCR4-receptor (receptor, UniProt P61073 1-352, looked up)
chain: MEGISIYTSDNYTEEMGSGDYDSMKEPCFREENANFNKIFLPTIYSIIFLTGIVGNGLVILVMGYQKKLRSMTDKYRLHLSVADLLFVITLPFWAVDAVANWYFGNFLCKAVHVIYTVNLYSSVLILAFISLDRYLAIVHATNSQRPRKLLAEKVVYVGVWIPALLLTIPDFIFANVSEADDRYICDRFYPNDLWVVVFQFQHIMVGLILPGIVILSCYCIIISKLSHSKGHQKRKALKTTVILILAFFACWLPYYIGISIDSFILLEIIKQGCEFENTVHKWISITEALAFFHCCLNPILYAFLGAKFKTSAQHALTSVSRGSSLKILSKGKRGGHSSVSTESESSSFHSS
notes: whole, on cells; also called SDF-1 receptor
